Laboratory results reported in patent publication CN113912709A (SHENZHEN NATIONAL CLINICAL RES CENTER FOR INFECTIOUS …, dated 2022).
Substitutions are numbered along the chain they refer to.

B1: VacW-105 (antibody, V domains shown)
VH: QVQLVQSGAEVKKPGSSVKVSCKASGGTFRSYTISWVRQAPGQGLEWMGRILPILGIANYAQKFQGRVTITADKSTSTAYMELSSLRSEDTAVYYCARVTGAPVESAAWFDPWGQGTLVTVSS
VL: not shown
B2: VacW-138 (antibody, V domains shown)
VH: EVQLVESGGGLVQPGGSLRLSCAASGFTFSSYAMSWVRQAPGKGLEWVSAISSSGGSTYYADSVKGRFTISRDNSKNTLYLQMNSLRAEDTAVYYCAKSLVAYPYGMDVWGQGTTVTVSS
VL: AIQLTQSPFSLSASVGDRVTITCRASQGISSALAWYQQKPGKAPKLLIYDASSLESGVPSRFSGSGSGTDFTLTISSLQPEDFATYFCQQVDTYQFTFGPGTKVDIK
B3: VacW-201 (antibody, V domains shown)
VH: EVQLVESGGGLVQPGGSLRLSCAASGFTFSSYWMNWVRQAPGKGLEWVANIKQDGSEKYYVDSVKGRFTISRDNAKNSLYLQMNSLRAEDTAVYYCARMEYPYGGVDYWGQGTLVTVSS
VL: NFMLTQPHSVSESPGKTVTISCTGSSGSIASNYVQWYQQRPGSAPTTVIYEDNQRPSGVPDRFSGSIDSSSNSASLTISGLKTEDEADYYCQSYDSSNRNWVFGGGTKLTVL
B4: VacW-212 (antibody, V domains shown)
VH: B3 VH with G55E, Y80F, A88V, V106I, S119A
VL: B3 VL
B5: VacW-209 (antibody, V domains shown)
VH: QVQLVESGGGVVQPGRSLRLSCAASGFTFSSIAMHWVRQAPGKGLEWVAVMSFDGSIKYYGDSVKGRFTISRDNSKSTLYLQMNSLRAEDTAVYYCARGVQGYYDRSGYYNLDYNYGMDVWGQGTTVTVSS
VL: QSVLTQPPSVSGAPGQRVTISCTGSSSNIGAGYDVHWYQQLPGTAPKLLIYGNSNRPSGVPDRFSGSKSGTSASLAITGLQAEDEADYYCQSYDSSLSGWVFGGGTKLTVL
B6: VacW-215 (antibody, V domains shown)
VH: EVQLVESGGGLIQPGGSLRLSCAASGFTVSSNYMSWVRQAPGKGLEWVSVIYSGGSTYYADSVKGRFTISRDNSKNTLYLQMNSLRAEDTAVYYCARSTWLRGGFDYWGQGTLVTVSS
VL: B3 VL with R99H, N100F, W101Y, G105T, L109V

target: T1, SARS-CoV-2 RBD protein L452R mutant (SARS-CoV-2, UniProt P0DTC2 319-541); assay: SPR, Biacore 8K, RBD on CM5 chip, IgG injected, 1:1 model
T1 construct: domain: RBD

Compared with B1, B2 is 1.9-fold lower in Kd: 3.69 nM for the first, 1.96 nM for the second.

B3 and B4 are within 1.5-fold of each other in Kd: 1.57 nM for the first, 1.2 nM for the second.

Compared with B5, B6 is 30-fold higher in Kd: 0.0237 nM for the first, 0.714 nM for the second.
